In IntAct's records for PubMed 36373674:

B1: SMC5-SMC6 complex localization factor protein 2 (Homo sapiens), Q8IX21 (parent)
chain: MTRRCMPARPGFPSSPAPGSSPPRCHLRPGSTAHAAAGKRTESPGDRKQSIIDFFKPASKQDRHMLDSPQKSNIKYGGSRLSITGTEQFERKLSSPKESKPKRVPPEKSPIIEAFMKGVKEHHEDHGIHESRRPCLSLASKYLAKGTNIYVPSSYHLPKEMKSLKKKHRSPERRKSLFIHENNEKNDRDRGKTNADSKKQTTVAEADIFNNSSRSLSSRSSLSRHHPEESPLGAKFQLSLASYCRERELKRLRKEQMEQRINSENSFSEASSLSLKSSIERKYKPRQEQRKQNDIIPGKNNLSNVENGHLSRKRSSSDSWEPTSAGSKQNKFPEKRKRNSVDSDLKSTRESMIPKARESFLEKRPDGPHQKEKFIKHIALKTPGDVLRLEDISKEPSDETDGSSAGLAPSNSGNSGHHSTRNSDQIQVAGTKETKMQKPHLPLSQEKSAIKKASNLQKNKTASSTTKEKETKLPLLSRVPSAGSSLVPLNAKNCALPVSKKDKERSSSKECSGHSTESTKHKEHKAKTNKADSNVSSGKISGGPLRSEYGTPTKSPPAALEVVPCIPSPAAPSDKAPSEGESSGNSNAGSSALKRKLRGDFDSDEESLGYNLDSDEEEETLKSLEEIMALNFNQTPAATGKPPALSKGLRSQSSDYTGHVHPGTYTNTLERLVKEMEDTQRLDELQKQLQEDIRQGRGIKSPIRIGEEDSTDDEDGLLEEHKEFLKKFSVTIDAIPDHHPGEEIFNFLNSGKIFNQYTLDLRDSGFIGQSAVEKLILKSGKTDQIFLTTQGFLTSAYHYVQCPVPVLKWLFRMMSVHTDCIVSVQILSTLMEITIRNDTFSDSPVWPWIPSLSDVAAVFFNMGIDFRSLFPLENLQPDFNEDYLVSETQTTSRGKESEDSSYKPIFSTLPETNILNVVKFLGLCTSIHPEGYQDREIMLLILMLFKMSLEKQLKQIPLVDFQSLLINLMKNIRDWNTKVPELCLGINELSSHPHNLLWLVQLVPNWTSRGRQLRQCLSLVIISKLLDEKHEDVPNASNLQVSVLHRYLVQMKPSDLLKKMVLKKKAEQPDGIIDDSLHLELEKQAYYLTYILLHLVGEVSCSHSFSSGQRKHFVLLCGALEKHVKCDIREDARLFYRTKVKDLVARIHGKWQEIIQNCRPTQGQLHDFWVPDS
partner: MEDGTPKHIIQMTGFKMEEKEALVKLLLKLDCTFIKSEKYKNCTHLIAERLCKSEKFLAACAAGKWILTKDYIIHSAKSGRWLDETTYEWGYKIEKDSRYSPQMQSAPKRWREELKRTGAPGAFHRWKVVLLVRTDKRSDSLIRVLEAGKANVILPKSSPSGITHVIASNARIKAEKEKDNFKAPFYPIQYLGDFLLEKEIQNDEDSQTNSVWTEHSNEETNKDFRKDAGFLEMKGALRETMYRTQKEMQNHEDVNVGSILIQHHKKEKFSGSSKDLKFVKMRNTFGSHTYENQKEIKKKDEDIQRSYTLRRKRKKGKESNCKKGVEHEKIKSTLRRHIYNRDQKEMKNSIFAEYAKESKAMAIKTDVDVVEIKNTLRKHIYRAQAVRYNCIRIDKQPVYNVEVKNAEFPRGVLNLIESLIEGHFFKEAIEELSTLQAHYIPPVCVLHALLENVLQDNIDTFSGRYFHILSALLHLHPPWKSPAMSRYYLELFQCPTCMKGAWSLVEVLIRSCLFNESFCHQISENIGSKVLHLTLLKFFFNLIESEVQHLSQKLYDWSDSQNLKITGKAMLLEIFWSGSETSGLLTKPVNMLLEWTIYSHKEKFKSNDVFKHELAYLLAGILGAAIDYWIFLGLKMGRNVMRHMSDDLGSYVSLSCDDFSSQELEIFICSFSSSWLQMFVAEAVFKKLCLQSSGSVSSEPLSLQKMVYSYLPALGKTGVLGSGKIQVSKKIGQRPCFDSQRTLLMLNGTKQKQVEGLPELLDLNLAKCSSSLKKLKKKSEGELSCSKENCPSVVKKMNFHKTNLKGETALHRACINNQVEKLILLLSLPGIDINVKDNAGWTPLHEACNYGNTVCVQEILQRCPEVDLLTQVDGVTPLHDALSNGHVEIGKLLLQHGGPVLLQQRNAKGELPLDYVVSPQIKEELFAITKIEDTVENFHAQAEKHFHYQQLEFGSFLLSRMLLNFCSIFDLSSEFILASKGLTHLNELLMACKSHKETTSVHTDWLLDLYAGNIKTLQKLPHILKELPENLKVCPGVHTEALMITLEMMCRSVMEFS
B2: SMC5-SMC6 complex localization factor protein 1 (Homo sapiens), Q9BQI6 (parent)
chain: B1 partner
partner: B1 chain

Variants of: B1
Conditions: with slf1_human SLF1, Q9BQI6

Q: With M831R;I835R as the variant, how does the “effect of a mutation on the interaction” value read?
A: Its value is “disrupting interaction strength”.

Q: With C820W;I821W as the variant, how does the “effect of a mutation on the interaction” value read?
A: Its value is “with no effect”.

Q: Which “effect of a mutation on the interaction” value does the source give for L775E;F786E;F792E here?
A: Its value is “disrupting interaction strength”.

Q: With P957D;V959D;W1006A as the variant, how does the “effect of a mutation on the interaction” value read?
A: Its value is “disrupting interaction strength”.

Variants of: B2
Conditions: with slf2_human SLF2, Q8IX21

Q: G464D;H468E;A472D;L476E was tested. Which “effect of a mutation on the interaction” value did it give?
A: The value was “disrupting interaction strength”.

Q: Which “effect of a mutation on the interaction” value does the source give for F957E;L964E here?
A: Its value is “disrupting interaction strength”.

Q: How did the “effect of a mutation on the interaction” value turn out when A1042D;I1045E;M1049E was run?
A: Its value is “disrupting interaction strength”.
